The values that follow come from patent US20200262898A1 (INTEGRAL MOLECULAR, published 2020).

Sequences and labels used below:
B1: Antibody of common light chain B9 (B9chicken) paired with the heavy chain against CD151 (antibody, V domains shown)
VH: AVTLDESGGGLQMPGGALSLVCKASGFTFSSYGMEWVRQAPGKGLEWVAGISSGGGSTDYGTAVKGRATISRDNGQSTVRLQLNNLRAEDTGTYFCAKSAYGGTWDGDDIDAWGHGTEVIVSS
VL: ALTQPSSVSANPGETVKITCSGGGSSNYYGWYQQKSPGSAPVTLIYGTNKRPSDIPSRFSGSKSGSTGTLTITGVQADDEAVYFCGSADSSTNAGIFGAGTTLTVL
notes: also called HC-CD151
B2: Antibody of common light chain C11 (C11chicken) paired with the heavy chain against CD151 (antibody, V domains shown)
VH: B1 VH
VL: ALTQPSSVSANPGETVKITCSGGGSWYGSYYYGWYQQKSPGSAPVTLIYNNDKRPSDIPSRFSGSESGSTATLTITGVQAEDEAVYFCGGYDSTTTDMFGAGTTLTVL
notes: also called HC-CD151
B3: Antibody of light chain E1 (E1chicken) paired with the heavy chain against CD151 (antibody, V domains shown)
VH: B1 VH
VL: ALTQPSSVSANPGETVKITCSGSSGSGYYGWYQQKSPGSAPVTLIYDNDKRPSDIPSRFSGSKSGSTGTLTITGVQADDEAVYFCGSADNNYTGIFGAGTTLTVL
notes: also called HC-CD151
B4: Antibody of light chain D3 (D3chicken) paired with the heavy chain against CD151 (antibody, V domains shown)
VH: B1 VH
VL: ALTQPSSVSANPGETVKITCSGDDRWYGWYQQKSPGSAPVTLIYSNDKRPSDIPSRFSGSKSGSTGTLTITGVQADDEAVYFCGSRDSSYAGIFGAGTTLTVL
notes: also called HC-CD151
B5: Antibody of common light chain C11 (C11chicken) paired with the heavy chain against CD81 (antibody, V domains shown)
VH: AVTLDESGGGLQTPGGALSLVCKASGFSIGDYNMGWVRQAPGKGLEWVAGIDAGGGTWRATAVKGRATISRDNGQSTVRLQLNNLRAEDTATYFCAKSTDSSANCCANSIDAWGHGTEVIVSS
VL: B2 VL
notes: also called HC-CD81
B6: Antibody of light chain E1 (E1chicken) paired with the heavy chain against CD81 (antibody, V domains shown)
VH: B5 VH
VL: B3 VL
notes: also called HC-CD81
B7: Antibody of light chain D3 (D3chicken) paired with the heavy chain against CD81 (antibody, V domains shown)
VH: B5 VH
VL: B4 VL
notes: also called HC-CD81
B8: Antibody of common light chain B9 (B9chicken) paired with the heavy chain against CD81 (antibody, V domains shown)
VH: B5 VH
VL: B1 VL
notes: also called HC-CD81
B9: Antibody of common light chain C11 (C11chicken) paired with the heavy chain against CD63 (antibody, V domains shown)
VH: AVTLDESGGGLQTPGGALSLVCKASGFTFSDRGMHWVRQAPGKGLEWVAGIRSTGSFTLYGAAVKGRATISRDDGQSTLRLQLNNLRAEDTGTYYCAKSAGGYGCGRGWCGVDDIDAWGHGTEVIVSS
VL: B2 VL
notes: also called HC-CD63
B10: Antibody of light chain D3 (D3chicken) paired with the heavy chain against CD63 (antibody, V domains shown)
VH: B9 VH
VL: B4 VL
notes: also called HC-CD63
B11: Antibody of light chain E1 (E1chicken) paired with the heavy chain against CD63 (antibody, V domains shown)
VH: B9 VH
VL: B3 VL
notes: also called HC-CD63
B12: Antibody of common light chain B9 (B9chicken) paired with the heavy chain against CD63 (antibody, V domains shown)
VH: B9 VH
VL: B1 VL
notes: also called HC-CD63
B13: Antibody of common light chain C11 (C11chicken) paired with the heavy chain against IGSF8 (antibody, V domains shown)
VH: AVTLDESGGGLQTPGGGLSLVCKASGFSISSYEMQWVRQAPGKGLEWVAGIDDDGSSRAYAPAVKGRATISRDNGQSTVRLQLNNLRAEDTGTYYCAKTIYAATLNAGEIDAWGHGTEVIVSS
VL: B2 VL
notes: also called HC-IGSF8
B14: Antibody of light chain D3 (D3chicken) paired with the heavy chain against IGSF8 (antibody, V domains shown)
VH: B13 VH
VL: B4 VL
notes: also called HC-IGSF8
B15: Antibody of light chain E1 (E1chicken) paired with the heavy chain against IGSF8 (antibody, V domains shown)
VH: B13 VH
VL: B3 VL
notes: also called HC-IGSF8
B16: Antibody of common light chain B9 (B9chicken) paired with the heavy chain against IGSF8 (antibody, V domains shown)
VH: B13 VH
VL: B1 VL
notes: also called HC-IGSF8
B17: Antibody of common light chain C11 (C11chicken) paired with the heavy chain against CD147 (antibody, V domains shown)
VH: AVTLDESGGGLQTPGGGLSLVCKASGFTFSSYAMYWVRQAPGKGLQWVAGISRDGSSGRYGAAVKGRATISRDNGQSTVRLQLNNLRAEDTATYFCAKSGYGDYTSADEIDAWGHGTEVIVSS
VL: B2 VL
notes: also called HC-CD147
B18: Antibody of common light chain B9 (B9chicken) paired with the heavy chain against CD147 (antibody, V domains shown)
VH: B17 VH
VL: B1 VL
notes: also called HC-CD147

The target in one assay is T1, CD151 (UniProt P48509 1-253, limits assumed).
T1 construct: whole, on cells
T1 sequence (looked up): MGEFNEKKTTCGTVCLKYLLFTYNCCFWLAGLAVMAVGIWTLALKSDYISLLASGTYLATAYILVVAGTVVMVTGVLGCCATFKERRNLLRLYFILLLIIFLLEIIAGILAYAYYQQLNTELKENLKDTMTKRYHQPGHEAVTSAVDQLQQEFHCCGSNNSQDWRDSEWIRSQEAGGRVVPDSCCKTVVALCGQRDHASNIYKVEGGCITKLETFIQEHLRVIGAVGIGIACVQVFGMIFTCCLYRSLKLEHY
The assay is described as follows: flow cytometry on cells transfected with the target; signal over mock-transfected cells (background = 1.0). The text has this:
(§1) Antibodies were generated using the common light chains B9, F10, C11, and H11 paired with 8 different heavy chains. […] Binding is expressed as Signal:Background for binding to the molecular target of the heavy chain antibody (listed at top of Table 4). Expression is based on binding to cells expressing an Fc-binding protein (the ZZ domain of ProA) (ZZ) on their surface, enabling total antibody to bind and be measured. Detection was using flow cytometry with cells transfected to express the target protein. Background binding S:B is normalized to 1.0, using mock-transfected cells as background. The data in the table below illustrate that the light chains can be used with a variety of heavy chains and the antibody generated from a VH that can bind to the light chains B9 and F10 will function and bind to the target of interest.
A general note: A flow cytometer gives signals particle by particle.
Take B1: the “S:B Binding” value is 27.4 S:B.
Same read-out and setting: in the case of B2 it was 1.4 S:B; in that of B3, 28.8 S:B; in that of B4, 47.5 S:B.

A further assay deals with T2, CD81 (UniProt P60033 1-236, limits assumed).
T2 construct: whole, on cells
T2 sequence (looked up): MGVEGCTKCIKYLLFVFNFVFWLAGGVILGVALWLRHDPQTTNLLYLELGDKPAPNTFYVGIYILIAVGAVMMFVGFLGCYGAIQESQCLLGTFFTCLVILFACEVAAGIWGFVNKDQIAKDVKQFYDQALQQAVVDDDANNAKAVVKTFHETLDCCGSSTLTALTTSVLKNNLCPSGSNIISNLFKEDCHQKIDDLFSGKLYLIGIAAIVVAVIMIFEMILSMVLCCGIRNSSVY
The assay is described as above.
Excerpt: as §1
Turning to B5, the “S:B Binding” value was 30.9 S:B.
B6: the “S:B Binding” value was 1.5 S:B.
On to B7, for which the “S:B Binding” value was 1.2 S:B.
The same measure, in the same setting: in the case of B8 it was 0.6 S:B.

The target of the next assay is T3, CD63 (UniProt P08962 2-238, limits assumed).
T3 construct: whole, on cells
The description is as above.
Excerpt: as §1
As to B9, the “S:B Binding” value is 0.8 S:B.
On to B10, for which the “S:B Binding” value is 20.6 S:B.
In the case of B11, the “S:B Binding” value is 31.8 S:B.
Regarding B12, the “S:B Binding” value is 2.7 S:B.

The target of a further assay is T4, IGSF8 (UniProt Q969P0 28-613, limits assumed).
T4 construct: whole, on cells
T4 sequence (looked up): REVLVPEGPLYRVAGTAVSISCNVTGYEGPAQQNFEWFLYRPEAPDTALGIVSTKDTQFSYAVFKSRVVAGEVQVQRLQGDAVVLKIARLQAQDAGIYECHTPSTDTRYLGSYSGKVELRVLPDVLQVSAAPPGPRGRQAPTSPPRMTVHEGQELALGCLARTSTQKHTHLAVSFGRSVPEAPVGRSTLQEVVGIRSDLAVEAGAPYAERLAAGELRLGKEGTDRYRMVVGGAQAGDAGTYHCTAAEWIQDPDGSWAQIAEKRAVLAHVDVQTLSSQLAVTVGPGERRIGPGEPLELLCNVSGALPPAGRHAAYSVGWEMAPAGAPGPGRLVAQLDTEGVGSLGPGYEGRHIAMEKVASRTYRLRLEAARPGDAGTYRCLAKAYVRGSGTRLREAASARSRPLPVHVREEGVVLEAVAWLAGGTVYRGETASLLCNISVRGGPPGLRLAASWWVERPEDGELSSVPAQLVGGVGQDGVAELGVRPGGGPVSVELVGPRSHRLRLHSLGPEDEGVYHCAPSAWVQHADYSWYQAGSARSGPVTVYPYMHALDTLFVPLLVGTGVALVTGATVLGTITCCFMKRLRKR
The description is as above.
Excerpt: as §1
On to B13, for which the “S:B Binding” value was 5.5 S:B.
As to B14, the “S:B Binding” value is 19.4 S:B.
In the case of B15, the “S:B Binding” value was 18.1 S:B.
The same measure, in the same setting: in the case of B16 it was 1.7 S:B.

The target of another assay is T5, Fc-binding protein (the ZZ domain of ProA).
T5 construct: domain: ZZ domain of ProA; the construct is not described
The assay is described as follows: flow cytometry on cells expressing the Fc-binding ZZ domain on their surface; given as a measure of expression.
Excerpt: as §1
In the case of B13, the “S:B Expression” value is 12 S:B.
Same read-out and setting: in the case of B14 it was 3.2 S:B; in that of B17, 16.6 S:B; in that of B15, 2 S:B.
Same read-out and setting: the same measure for B5: 9.8 S:B; for B9: 8.8 S:B.
On to B6, for which the “S:B Expression” value was 1.7 S:B.
On the same count and under the same terms, in the case of B10 it was 3.9 S:B.
Still for that read-out and setting: the same measure for B7: 1.8 S:B.
B11: the “S:B Expression” value is 24.4 S:B.
With B1, the “S:B Expression” value was 9.7 S:B.
For the molecule B8, the “S:B Expression” value is 10.8 S:B.
For B2, the “S:B Expression” value is 11.5 S:B.
Same read-out and setting: the same measure for B18: 17 S:B; for B3: 11.3 S:B; for B16: 12.7 S:B.
As for B4, the “S:B Expression” value was 6.5 S:B.
On the same count and under the same terms, the same measure for B12: 11.3 S:B.
